We go through two molecules from patent US11111484B2, “Streptococcus bacteriophage lysins for detection and treatment of gram positive bacteria” (priority 2011, dated 2021).

The test system of test [1] is MRSA strain MW2. The test can be described thus: resistance assay, exposure to incrementally increasing concentrations. The settings on record: concentration doubled daily from 1/32 to 4× MIC over 8 days. It counts as cell-based, Staphylococcus aureus.
For another test, the system named is MSSA strain 8325. The test is described as above. It counts as cell-based, Staphylococcus aureus. The settings on record: MSSA 8325; concentration doubled daily from 1/32 to 4× MIC over 8 days.
The next test has as its system MRSA. Kind of test: MRSA mouse sepsis model. The test is classed as in vivo, FVB/NJ mice. The protocol:
PlySs2 lysin activity against S. aureus has been further evaluated in an MRSA mouse sepsis model. In the MRSA mouse sepsis model, susceptible mice (FVB/NJ mice, weight range 15-20 g) were injected with 500 μL of 5×10^5 (approx LD100) MRSA cells/mL in 5% hog gastric mucin in PBS intraperitoneally (IP). After 3 hours, all of the mice are bacteremic with MRSA in their organs (including spleen, liver, kidney, and heart/blood). To determine PlySs2 activity in this model, 500 μL PlySs2 at 2 mg/mL was injected IP 3 hours after injecting MRSA. […] Control mice were injected with 500 μL PBS. Survival was evaluated over ten days. The control mice die within 18-20 hours.

The subject of the next test is E. coli. Kind of test: CFU studies, bactericidal effect. The settings on record: E. coli negative control; 128 μg/ml PlySs2; 60 mins. The test is classed as cell-based, Escherichia coli. The procedure: Log-phase bacteria were resuspended in buffer A to an OD600 of 0.1 (=0.5 McFarland≈10^8 CFU/ml). PlySs2 was added at 128 μg/ml to polypropylene microtiter plates (Costar) in triplicate for each test organism. Plates were sealed and incubated at 37° C. with shaking every 5 minutes for 1 hour. After 1 hour of incubation, cells were serially diluted in 10-fold increments and plated on BHI. Triplicate controls for each strain were performed with buffer B replacing PlySs2.

Test [2] concerns MRSA strain MW2. Kind of test: murine septicemia model, MRSA infection alone. The test is classed as in vivo, FVB/NJ mice. The settings on record: PlySs2 1 mg. The protocol: The Rockefeller University's Institutional Animal Care and Use Committee approved all in vivo protocols. A systemic infection model described in Daniel, A. et al., was used to test for the in vivo efficacy of PlySs2 against multiple gram-positive bacteria. Briefly, 4-5 week old female FVB/NJ mice (weight range 15 to 20 g) were obtained from The Jackson Laboratory (Bar Harbor, Me.). After a period of acclimation, mice were injected intraperitoneally (IP) with 0.5 ml of mid log-phase (OD600 0.5) bacteria diluted with 5% hog gastric mucin (Sigma) in saline. Bacterial suspensions contained ˜5×10^5 CFU/ml of MW2, a PVL toxin-encoding MRSA strain, ˜1×10^7 of MGAS5005, an M1 serotype of Streptococcus pyogenes that is virulent in humans and mice (Musser), or a combination of both bacteria simultaneously at the above concentrations for the mix infection experiments. Actual bacterial inoculation titers were calculated by serial dilution and plating to Columbia blood agar plates for each experiment. Mice became bacteremic within one to three hours and contained MRSA and/or S. pyogenes in their organs (including spleen, liver, kidney, and heart/blood) ([50], and unpublished observations). […] The survival rate for each experimental group was monitored every 12 hours for the first 24 hours then every 24 hours up to 10 days post-infection. The data were statistically analyzed by Kaplan Meier Survival curves and a Logrank test performed for 95% confidence intervals using the Prism computer program (GraphPad Software; La Jolla, Calif.).
To determine if the broad lytic activity of PlySs2 could provide in vivo protection from infection with gram-positive pathogens, either alone or as a mixed infection, FVB/NJ mice were intraperitoneally injected with ˜5×10^5 CFU of MRSA strain MW2, ˜1×10^7 of S. pyogenes strain MGAS5005 and/or both bacteria simultaneously at the concentrations above. […] Mice were then monitored for survival over ten days. […]

The test system of another test is Listeria strains. The test can be described thus: PlySs2 lytic activity against species and strains (FIG. 25). The test is classed as cell-based. The settings on record: 32 μg/ml, 60 minutes. The protocol: (§1) FIG. 25 provides PlySs2 activity against different species and strains. Log-phase cultures were exposed to 32 μg/ml PlySs2 for 60 minutes in phosphate buffer. The final OD600 of the treated samples were divided by the final OD600 of the untreated samples to generate the normalized values above. Multiple Staphylococci (including, but not limited to: MRSA, MSSA, and VISA), Streptococci, Listeria, Enterococci, and Bacilli were tested for susceptibility to PlySs2 activity. Escherichia and Pseudomonas were tested as Gram-negative controls.

The test system of a further test is Pseudomonas. Described as above. The test is classed as cell-based. The settings on record: Gram-negative control. The procedure: as §1
The test system of another test is S. uberis 27598. The test can be described thus: ΔPlySs1 OD600 lysis, 1 hr, optimal buffering conditions. The test is classed as cell-based.
In another test the test system is S. equi 9528. The test is described as above. It counts as cell-based, Streptococcus equi.
Test [3] has as its system Group E streptococci K131. Described as above. The test is classed as cell-based.
The next test has as its system S. mutans U159. The description is as above. The test is classed as cell-based, Streptococcus mutans.
The test system of a further test is S. agalactiae 090R. The description is as above. The test is classed as cell-based, Streptococcus agalactiae.

“Also recorded” adds a separate entry of the source.

B1: PlySs2: Streptococcus suis prophage lysin, SEQ ID NO:3; N-terminal CHAP domain and C-terminal SH3-type 5 domain (protein, listed as Streptococcus suis)
chain: MTTVNEALNNVRAQVGSGVSVGNGECYALASWYERMISPDATVGLGAGVGWVSGAIGDTISAKNIGSSYNWQANGWTVSTSGPFKAGQIVTLGATPGNPYGHVVIVEAVDGDRLTILEQNYGGKRYPVRNYYSAASYRQQVVHYITPPGTVAQSAPNLAGSRSYRETGTMTVTVDALNVRRAPNTSGEIVAVYKRGESFDYDTVIIDVNGYVWVSYIGGSGKRNYVATGATKDGKRFGNAWGTFK
Regarding B1, the development of resistance result with MRSA strain MW2 [1] is recorded as “Neither S. aureus strain developed resistance; also recorded: None of MRSA strain MW2, MSSA strain 8325, nor S. pyogenes strain 5005 developed resistance”; in the test with MSSA strain 8325, “Neither S. aureus strain developed resistance; also recorded: None of MRSA strain MW2, MSSA strain 8325, nor S. pyogenes strain 5005 developed resistance”. For the same molecule, in the test with MRSA (500 μL PlySs2 at 2 mg/mL IP 3 hours after MRSA), the “survival evaluated over ten days” value is recorded as “remarkable survival”. Further, the “mice cleared of bacteremia (survival over 10 days)” value in the test with MRSA (MRSA bacteremia, FIG. 24) came to 95%. Besides, in the test on E. coli, the “reduction in CFU counts” value was “no reduction in number”. In addition, the “survival over 10 days (mice surviving/total)” value in the test on MRSA strain MW2 [2] (IP 3 h post-infection, ClyS 1 mg) was 16/18. The “mice died at forty-eight hours (dead/total)” value with MRSA strain MW2 [2] is recorded as 2/18. In addition, the “survival over 10 days” value in the test with MRSA strain MW2 [2] (ClyS 1 mg) is reported as 88%. The “strains lysed of strains tested” value in the test with Listeria strains is on record as 2 of 6. The lytic activity entry in the test on Pseudomonas is “did not display activity”.

B2: ΔPlySs1: truncated PlySs1 lysin, SEQ ID NO:2, N-terminal 254 amino acids: only N-terminal enzymatic and central binding domains (protein, listed as Streptococcus suis)
chain: MTINLETSIRWMSDRVGKVSYSMDYRNGPNSYDCSSAVYYALMAGGAISAGWAVNTEYMHDWLIRNGYVLVAENKPFNAQRHDVCILGKRGYSSGAGGHVVIFVDNVNVIHCNYARNGISIDNYNQVHRGMYYYLYRPANQPSISNKSLDQLVKETLAGVHGNGDTRKASLGSQYEAVMAVINGKASASEKSDEELAREVLAGKHGAGEDRKRSLGPRYEPVQAKVNELLKAKEKPSETAKNEPQTVQFKEDGDL
Turning to B2, the “lysis value after 1 hr (treated/untreated OD600 ratio)” value in the test on S. uberis 27598 (6.5 μg/ml) is listed as 0.42; in the test on S. uberis 27598 (13 μg/ml) it was 0.23; in the test on S. uberis 27598 (30 μg/ml), 0.16; in the test on S. uberis 27598 (65 μg/ml) it was 0.14; in the test on S. uberis 27598 (130 μg/ml), 0.12; in the test on S. equi 9528 (6.5 μg/ml), 0.66. The “lysis value after 1 hr (treated/untreated OD600 ratio)” value was 0.45 in the test on S. equi 9528 (13 μg/ml); 0.25 with S. equi 9528 (30 μg/ml); 0.19 in the test on S. equi 9528 (65 μg/ml); 0.16 in the test on S. equi 9528 (130 μg/ml); 0.69 in test [3] (6.5 μg/ml); 0.50 in test [3] (13 μg/ml). The “lysis value after 1 hr (treated/untreated OD600 ratio)” value in test [3] (30 μg/ml) came to 0.33; in test [3] (65 μg/ml), 0.22; in [3] (130 μg/ml) it was 0.15; in the test on S. mutans U159 (6.5 μg/ml), 0.95; with S. mutans U159 (13 μg/ml), 0.99; in the test on S. mutans U159 (30 μg/ml) it was 0.94. Further, the “lysis value after 1 hr (treated/untreated OD600 ratio)” value with S. mutans U159 (65 μg/ml) is listed as 0.76; in the test with S. mutans U159 (130 μg/ml), 0.85; in the test on S. agalactiae 090R (6.5 μg/ml), 0.97; in the test with S. agalactiae 090R (13 μg/ml) it was 0.99; with S. agalactiae 090R (30 μg/ml) it was 0.97; in the test on S. agalactiae 090R (65 μg/ml), 0.98. For the same molecule, in the test with S. agalactiae 090R (130 μg/ml), the “lysis value after 1 hr (treated/untreated OD600 ratio)” value is 0.93.
